{"source": "paper PMC5679713", "about": "(Structure (London, England : 1993), 2017)", "key": {"[1]": {"molecular_target": "PHD finger of Drosophila PPS (PPS-PHD), wild type, as used in NMR and fluorescence (Drosophila)", "assay": "NMR titration"}, "[2]": {"molecular_target": "PHD finger of Drosophila PPS (PPS-PHD), wild type, as used in NMR and fluorescence (Drosophila)", "assay": "other fluorescence titration"}, "[3]": {"molecular_target": "PHD finger of Drosophila PPS (PPS-PHD), wild type, as used in NMR and fluorescence (Drosophila)", "assay": "other fluorescence titration", "remark": "listed apart in the source"}, "[4]": {"molecular_target": "PHD finger of Drosophila PPS (PPS-PHD), wild type, as used in NMR and fluorescence (Drosophila)", "assay": "other fluorescence titration", "remark": "listed apart in the source"}, "PPS-PHD": {"molecular_target": "PPS-PHD (Drosophila melanogaster, UniProt Q9VG78)", "sequence (Q9VG78 1-2016)": "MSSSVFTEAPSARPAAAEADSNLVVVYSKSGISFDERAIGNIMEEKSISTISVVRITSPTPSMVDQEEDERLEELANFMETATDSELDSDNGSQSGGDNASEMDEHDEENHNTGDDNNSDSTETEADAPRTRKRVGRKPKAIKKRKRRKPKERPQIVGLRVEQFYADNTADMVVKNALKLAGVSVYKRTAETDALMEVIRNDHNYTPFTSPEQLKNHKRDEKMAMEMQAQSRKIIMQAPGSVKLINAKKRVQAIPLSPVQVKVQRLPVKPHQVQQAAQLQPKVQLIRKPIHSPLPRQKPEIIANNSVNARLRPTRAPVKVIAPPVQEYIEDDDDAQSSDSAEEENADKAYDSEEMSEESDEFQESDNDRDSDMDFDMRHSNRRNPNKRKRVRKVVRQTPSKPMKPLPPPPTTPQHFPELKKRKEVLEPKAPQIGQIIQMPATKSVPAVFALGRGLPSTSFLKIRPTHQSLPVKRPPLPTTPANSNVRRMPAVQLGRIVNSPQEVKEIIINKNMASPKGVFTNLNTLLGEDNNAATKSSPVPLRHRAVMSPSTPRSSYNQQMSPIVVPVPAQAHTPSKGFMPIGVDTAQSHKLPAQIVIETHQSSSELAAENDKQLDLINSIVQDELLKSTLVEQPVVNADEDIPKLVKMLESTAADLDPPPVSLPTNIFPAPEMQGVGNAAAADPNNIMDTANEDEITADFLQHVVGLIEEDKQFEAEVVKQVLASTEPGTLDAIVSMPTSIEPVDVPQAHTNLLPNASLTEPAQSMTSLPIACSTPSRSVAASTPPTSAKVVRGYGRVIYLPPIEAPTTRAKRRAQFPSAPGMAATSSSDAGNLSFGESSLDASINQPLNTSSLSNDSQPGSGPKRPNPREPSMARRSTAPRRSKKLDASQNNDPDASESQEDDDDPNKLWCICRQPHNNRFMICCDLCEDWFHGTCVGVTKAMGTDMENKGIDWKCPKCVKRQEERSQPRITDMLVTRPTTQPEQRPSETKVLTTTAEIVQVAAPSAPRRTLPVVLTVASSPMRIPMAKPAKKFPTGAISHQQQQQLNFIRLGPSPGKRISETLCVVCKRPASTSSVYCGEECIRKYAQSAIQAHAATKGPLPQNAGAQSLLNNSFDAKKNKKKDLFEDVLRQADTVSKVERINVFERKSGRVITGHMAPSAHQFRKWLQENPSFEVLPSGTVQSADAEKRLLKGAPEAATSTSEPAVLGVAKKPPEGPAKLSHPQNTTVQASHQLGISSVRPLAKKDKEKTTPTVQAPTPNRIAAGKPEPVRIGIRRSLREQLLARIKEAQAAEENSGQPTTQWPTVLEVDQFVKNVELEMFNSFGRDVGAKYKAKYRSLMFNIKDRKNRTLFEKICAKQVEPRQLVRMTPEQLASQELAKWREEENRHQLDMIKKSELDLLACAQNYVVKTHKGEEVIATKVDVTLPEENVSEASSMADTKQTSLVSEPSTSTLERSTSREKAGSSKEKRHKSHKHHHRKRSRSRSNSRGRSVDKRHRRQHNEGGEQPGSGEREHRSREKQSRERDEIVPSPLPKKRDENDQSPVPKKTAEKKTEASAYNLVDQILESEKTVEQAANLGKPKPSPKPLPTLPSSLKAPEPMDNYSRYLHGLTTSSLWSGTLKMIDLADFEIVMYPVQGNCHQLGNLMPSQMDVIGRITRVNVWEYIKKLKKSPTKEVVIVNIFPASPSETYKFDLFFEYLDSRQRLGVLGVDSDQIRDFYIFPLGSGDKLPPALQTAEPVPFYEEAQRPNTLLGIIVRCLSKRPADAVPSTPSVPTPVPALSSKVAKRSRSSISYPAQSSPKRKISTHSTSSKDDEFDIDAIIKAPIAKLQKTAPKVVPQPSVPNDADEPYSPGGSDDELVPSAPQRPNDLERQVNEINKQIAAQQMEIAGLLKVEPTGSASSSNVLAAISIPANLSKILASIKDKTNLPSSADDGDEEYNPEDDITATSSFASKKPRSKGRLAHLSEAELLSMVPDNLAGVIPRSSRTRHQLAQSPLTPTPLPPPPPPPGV", "assay": "1H,15N HSQC NMR titration, PPS-PHD", "assay_type": "binding", "conditions": "pH 6.9, H3 peptide residues 1-12, 298K"}, "[5]": {"molecular_target": "T1, PHD finger of yeast Bye1 (Bye1-PHD), aa 47-134 (S. cerevisiae, UniProt P36106 47-134)", "T1 sequence (looked up)": "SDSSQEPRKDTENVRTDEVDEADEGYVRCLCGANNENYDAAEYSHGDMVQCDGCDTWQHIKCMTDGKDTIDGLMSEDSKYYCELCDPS", "assay": "other fluorescence titration"}}, "note": "Where no end group is shown, it is not given here. Me3 = trimethyl-lysine"}
{"molecule": "histone H3K4me1 peptide (residues 1-12 of H3) (from UniProt P68431 2-13)", "values": [{"measurement": "Kd", "setting": "[1]", "result": 230, "unit": "µM"}]}
{"molecule": "histone H3K4me3 peptide (residues 1-12 of H3) (from UniProt P68431 2-13)", "values": [{"measurement": "Kd", "setting": "[2]", "result": 3.6, "unit": "µM"}, {"measurement": "Kd", "setting": "[3]", "result": 17, "unit": "µM"}, {"measurement": "Kd", "setting": "[4]", "result": 1.9, "unit": "µM"}]}
{"molecule": "H3K4me0: H3K4me0 peptide (1–12 aa), unmethylated histone H3 tail, Synpeptide", "values": [{"measurement": "Binding by NMR chemical shift perturbations (CSPs), in words", "setting": "PPS-PHD", "result": "no CSPs in PPS-PHD were seen"}, {"measurement": "Recognition of unmethylated histone H3 tail, in words", "setting": "PPS-PHD; NMR", "result": "does not recognize unmethylated histone H3 tail at all"}]}
{"molecule": "ARTK(Me3)QTARKSTG (peptide, UniProt P68431 2-13, looked up)", "note": "[histone H3K4me3 peptide (residues 1-12 of H3)]", "values": [{"measurement": "binding result", "setting": "[5]", "result": "binds"}]}
